Our source for the EC50 values is patent US20230250189A1 (HEIDELBERG PHARMA RESEARCH, published 2023).

For test [1], the target named is T1, Prostate specific membrane antigen (PSMA) (human, UniProt Q04609 1-750).
T1 construct: whole, on cells; The background says that PSMA is a homodimer when enzymatically active; also called glutamate carboxypeptidase II; GCPII
Briefly: flow cytometry on LNCAP cells, FITC anti-human IgG. On the procedure:
(§1) Pre-confluent LNCAP cells at 80-90% confluence were washed and detached from the plates with trypsin prior to 1-hour incubation at 37° C., 5% CO₂ in the flasks to restore cell surface proteins. Cells were washed and adjusted to 1×10₆ cells/ml in staining media (RPMI-1640, 25 mM HEPES, 3% h.i. FBS and 0.02% sodium azide). Various concentrations of the monoclonal antibody samples (murine wt and 16 humanized variants) ranging from 50 to 0.0032 μg/ml were prepared in staining media and incubated with the cells in pre-cooled 96-well plates for 30 min. on ice to allow antibody binding to the LNCAP cell surface. Subsequently, cells were washed at 4° C. with PBS to remove free antibody, and bound antibody was labelled with FITC goat anti-human IgG H&L preabsorbed (Abcam) secondary antibody for 30 min. on ice. Finally, cells were washed, fixed and FITC fluorescence associated to the antibody bound to the cells was measured by flow cytometry (GUAVA 8HT Cytometer). Data was analyzed using Incyte GuavaSoft 2.7 software (Merck-Millipore). The obtained dose-response data (plotted as log-transformed dose vs. response) typically produced sigmoidal curves with variable slope which were fitted to a 4-parameter logistic dose-response equation using GraphPad Prism software. The EC₅₀ dose, defined as the concentration of antibody that provides half of maximal target cell binding, was used to compare the bioactivity of different antibody variants. Data points represent the average of duplicate wells and standard error of the mean (SEM).
A general note: In flow cytometry, cells or beads pass a laser one at a time.

The target in test [2] is T1, Prostate specific membrane antigen …. Kind of test: flow cytometry on LNCAP cells, FITC anti-human IgG. On the procedure:
as §1
The source holds these as a separate data set.

Residue numbers refer to the chain shown, from its start. Where two headings read alike, the source gives them in different places.

T1 sequence (Q04609 whole entry): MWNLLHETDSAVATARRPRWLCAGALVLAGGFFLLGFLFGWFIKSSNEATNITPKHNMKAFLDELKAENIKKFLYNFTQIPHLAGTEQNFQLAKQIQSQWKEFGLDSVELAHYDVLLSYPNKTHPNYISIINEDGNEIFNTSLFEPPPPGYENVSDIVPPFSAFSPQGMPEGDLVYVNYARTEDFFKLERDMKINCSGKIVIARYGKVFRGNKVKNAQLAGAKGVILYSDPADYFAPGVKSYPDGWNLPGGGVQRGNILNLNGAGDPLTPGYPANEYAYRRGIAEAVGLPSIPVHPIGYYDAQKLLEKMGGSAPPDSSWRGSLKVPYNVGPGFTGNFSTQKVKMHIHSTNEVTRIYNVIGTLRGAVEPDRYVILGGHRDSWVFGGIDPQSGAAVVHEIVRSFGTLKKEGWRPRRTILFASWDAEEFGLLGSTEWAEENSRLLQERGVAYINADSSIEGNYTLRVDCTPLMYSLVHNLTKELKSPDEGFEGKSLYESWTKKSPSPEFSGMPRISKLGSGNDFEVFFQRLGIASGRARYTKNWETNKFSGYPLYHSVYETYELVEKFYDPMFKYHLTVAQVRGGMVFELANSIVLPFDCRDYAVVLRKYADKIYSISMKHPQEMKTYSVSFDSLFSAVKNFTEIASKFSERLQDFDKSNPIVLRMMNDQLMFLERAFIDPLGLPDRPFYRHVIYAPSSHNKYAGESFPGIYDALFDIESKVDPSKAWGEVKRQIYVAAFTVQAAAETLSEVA

B1: 3F11-var 6 (antibody, human IgG1, kappa, V domains shown)
VH: QVQLVQSGAEVKKPGASVKVSCKASGYTFTYFDINWLRQAPGQGLEWMGGISPGDGNTNYAQKFQGRVTLTIDTSTSTAYMELSSLRSEDTAVYYCARDGNFPYYAMDSWGQGTLVTVSS
VL: DIVMTQSPLSLPVTPGEPASISCRSSQSLVHSNGQTYLHWYLQKPGQSPQLLIYTVSNRFSGVPDRFSGSGSGTDFTLKISRVEAEDVGVYYCSQSTHVPTFGGGTKVEIKR
notes: Expressed from pXC-IgG1zadeltaK and pXC-Kappa vectors
Broadly, the EC50 is the concentration that produces a half-maximal response. A low value points to a more potent agent. Consider B1, for which the EC50 in test [1] and in test [2] was 0.219 µg/mL in each case.

B2: 3F11-var 7 (antibody, human IgG1, kappa, V domains shown)
VH: B1 VH with T58V
VL: B1 VL
notes: as for B1
As to B2, the EC50 in test [1] and in test [2] was 0.178 µg/mL throughout.

B3: 3F11-var 2 (antibody, human IgG1, kappa, V domains shown)
VH: B1 VH
VL: B1 VL with Q35N, Y41F, Y92F
notes: as for B1
Turning to B3, the EC50 in test [1] and in test [2] was 0.273 µg/mL throughout.

B4: 3F11-var 10 (antibody, human IgG1, kappa, V domains shown)
VH: B1 VH
VL: B1 VL with N33S
notes: as for B1
In the case of B4, the EC50 in test [1] and in test [2] was 0.284 µg/mL throughout.

B5: 3F11-var 14 (antibody, human IgG1, kappa, V domains shown)
VH: B1 VH
VL: B1 VL with N33S, L42Q, F60A, V90T
notes: as for B1
With B5, the EC50 in test [1] and in test [2] was 0.272 µg/mL each time.

B6: 3F11-var 9 (antibody, human IgG1, kappa, V domains shown)
VH: B1 VH with A61N, Q62E, K63N, Q65K, T74K, Y95F
VL: B1 VL with N33S
notes: as for B1
Consider B6, for which the EC50 in test [1] and in test [2] was 0.281 µg/mL in each case.

B7: 3F11-var 1 (antibody, human IgG1, kappa, V domains shown)
VH: B1 VH with A61N, Q62E, K63N, Q65K, T74K, Y95F
VL: B1 VL with Q35N, Y41F, Y92F
notes: as for B1
Regarding B7, the EC50 in test [1] and in test [2] was 0.29 µg/mL in each case.

B8: 3F11-var 5 (antibody, human IgG1, kappa, V domains shown)
VH: B1 VH with A61N, Q62E, K63N, Q65K, T74K, Y95F
VL: B1 VL
notes: as for B1
B8: the EC50 in test [1] and in test [2] was 0.304 µg/mL throughout.

B9: 3F11-var 13 (antibody, human IgG1, kappa, V domains shown)
VH: B1 VH with A61N, Q62E, K63N, Q65K, T74K, Y95F
VL: B1 VL with N33S, L42Q, F60A, V90T
notes: as for B1
In the case of B9, the EC50 in test [1] and in test [2] was 0.25 µg/mL each time.

B10: 3F11-var 8 (antibody, human IgG1, kappa, V domains shown)
VH: B1 VH with G56S, T58V
VL: B1 VL
notes: as for B1
Regarding B10, the 50% effective concentration (EC50) in test [1] and in test [2] was 0.204 µg/mL in each case.

B11: 3F11-var 12 (antibody, human IgG1, kappa, V domains shown)
VH: B1 VH with G56S, T58V
VL: B1 VL with N33S
notes: as for B1
B11: the EC50 in test [1] and in test [2] was 0.329 µg/mL throughout.

B12: 3F11-var 4 (antibody, human IgG1, kappa, V domains shown)
VH: B1 VH with G56S, T58V
VL: B1 VL with Q35N, Y41F, Y92F
notes: as for B1
For the molecule B12, the EC50 in test [1] and in test [2] was 0.373 µg/mL in each case.

B13: 3F11-var 16 (antibody, human IgG1, kappa, V domains shown)
VH: B1 VH with G56S, T58V
VL: B1 VL with N33S, L42Q, F60A, V90T
notes: as for B1
Consider B13, for which the EC50 in test [1] and in test [2] was 0.248 µg/mL each time.

B14: 3F11-var 11 (antibody, human IgG1, kappa, V domains shown)
VH: B1 VH with T58V
VL: B1 VL with N33S
notes: as for B1
For the molecule B14, the EC50 in test [1] and in test [2] was 0.339 µg/mL throughout.

B15: 3F11-var 3 (antibody, human IgG1, kappa, V domains shown)
VH: B1 VH with T58V
VL: B1 VL with Q35N, Y41F, Y92F
notes: as for B1
Take B15: the EC50 in test [1] and in test [2] was 0.264 µg/mL throughout.

B16: 3F11-var 15 (antibody, human IgG1, kappa, V domains shown)
VH: B1 VH with T58V
VL: B1 VL with N33S, L42Q, F60A, V90T
notes: as for B1
With B16, the EC50 in test [1] and in test [2] was 0.244 µg/mL in each case.
